Patent publication US9809645B2, “Anti-Staphylococcus antibody, method for manufacturing same, and usage of same” (priority 2013, dated 2017)
Counter-ions that a name gives are not always drawn.

Assays:
[1] = system: Staphylococcus aureus strain MW2; experiment: Community-acquired MRSA mouse pneumonia model, therapeutic; format: in vivo; details: 1 mg into tail vein three days after nasal infection with 4×10^8 cells MW2; lungs five days after infection; BALB/c mice; compared to PBS group; Wilcoxon rank sum test; FIGS. 10 and 11
Protocol: The Staphylococcus aureus strain MW2 was nasally administered, at 4×10^8 cells/40 μL PBS, to female 7-week-old BALB/c mice to allow the bacteria to infect the lungs. Three days later, 0.2 mL of a test sample (PBS, 1 mg anti-Staphylococcus antibody, 1 mg mouse IgG, 1 mg vancomycin hydrochloride (VCM)) was administered into the tail veins.
Five days after the Staphylococcus aureus administration (two days after the test sample administration), the lungs were extirpated, homogenized, and the resulting suspensions were applied to mannitol salt agar plates. They were cultured for 36 hours at 37° C. The number of colonies that appeared was counted, and was used as the number of lung infecting bacteria.

[2] = system: Staphylococcus aureus (protein A knock-out OS2 strain); experiment: Staphylococcus aureus solid phase Cell-ELISA (live cells immobilized); format: binding; details: purified antibody; A405; FIG. 2
Protocol: In order to detect antibodies actually capable of binding to an infectious Staphylococcus capable of growth, the binding of the anti-Staphylococcus antibodies was measured using Staphylococcus aureus solid phase Cell-ELISA in which live cells were immobilized onto a solid phase.
A protein A knock-out OS2 strain was grown in stationary culture for 16 hours at 30° C. in TSB, collected by centrifugation, washed three times using Dulbecco's phosphate buffered saline (-) (hereinafter “PBS”), and adjusted to a concentration of about A600=0.1.
This was dispensed at 100 μL for each well of a 96-well ELISA plate (Nunc, Maxisorp), and the well was left standing for 6 hours at 4° C. to coat the cells. After washing three times with PBS, 300 μL of 1% rabbit serum/PBS was added to each well, and the well was left standing for 16 hours at 4° C. to perform blocking. Furthermore, after washing three times with 0.05% Tween 20/PBS, 100 μL/well of an immunized mouse serum or hybridoma culture supernatant was added to each well, and the well was left standing for 2 hours at 30° C. After washing three times with 0.05% Tween 20/PBS again, 100 μL/well of a goat HRP-labelled F(ab′)2 anti-mouse IgG+IgM (BioSource) or a goat HRP-labelled F(ab′)2 anti-mouse IgG (γ) (KPL) was added as the secondary antibody to each well, and the well was left standing for 2 hours at 30° C. After washing three times with 0.05% Tween 20/PBS, 100 μL/well of ABTS was added to each well as the substrate to allow color to develop, and photometry at A405 was performed using a microplate reader to measure the amount of anti-Staphylococcus antibodies.
The binding affinity between an anti-Staphylococcus antibody and a Staphylococcus was examined by ELTSA reactivity.

[3] = system: Staphylococcus aureus strain VRS1; experiment: Highly vancomycin-resistant MRSA mouse sepsis model; format: in vivo; details: 1 mg antibody intraperitoneal with 2-3×10^9 cells VRS1; female BALB/c mice; compared to PBS-administered group and VCM-administered group; Fisher's exact test; FIG. 7
Protocol: The Staphylococcus aureus strain VRS1, at 2-3×10^9 cells/0.5 mL PBS, and 0.2 mL of a test sample (PBS, 1 mg anti-Staphylococcus antibody, 1 mg mouse IgG, 1 mg vancomycin hydrochloride (VCM)) were administered to the peritoneal cavities of female 7-week-old BALB/c mice, and the number of surviving mice was determined.

[4] = system: Staphylococcus aureus strain MW2; experiment: Community-acquired MRSA mouse pneumonia model, preventive; format: in vivo; details: 1 mg into tail vein one hour before nasal infection with 4×10^8 cells MW2; lungs four days after infection; BALB/c mice; compared to PBS group; Wilcoxon rank sum test; FIGS. 8 and 9
Protocol: A 0.2 mL portion of a test sample (PBS, 1 mg anti-Staphylococcus antibody, 1 mg vancomycin hydrochloride (VCM)) was administered into the tail vein, and one hour after the administration, the Staphylococcus aureus strain MW2 was nasally administered at 4×10^8 cells/40 μL PBS to female 7-week-old BALB/c mice to infect the lungs. Four days after the infection, the lungs were extirpated, suspended using a homogenizer, applied to mannitol salt agar plates, and cultured for 36 hours at 37° C. The number of colonies that appeared was counted, and was defined as the number of lung infecting bacteria.

[5] = system: Staphylococcus aureus strain MW2; experiment: Community-acquired MRSA mouse sepsis model; format: in vivo; details: 1 mg antibody intraperitoneal with 8×10^8 cells MW2; female BALB/c mice; compared to PBS-administered group; Fisher's exact test; FIGS. 4 and 5
Protocol: The Staphylococcus aureus strain MW2, at 8×10^8 cells/0.5 mL PBS, and 0.2 mL of a test substance (PBS, 1 mg anti-Staphylococcus antibody, 1 mg mouse IgG) were administered to the peritoneal cavities of female 7-week-old BALB/c mice, and the number of surviving mice was determined.

Molecule: CN[C@H](CC(C)C)C(=O)N[C@H]1C(=O)N[C@@H](CC(N)=O)C(=O)N[C@H]2C(=O)N[C@H]3C(=O)N[C@H](C(=O)N[C@H](C(=O)O)c4cc(O)cc(O)c4-c4cc3ccc4O)[C@H](O)c3ccc(c(Cl)c3)Oc3cc2cc(c3O[C@@H]2O[C@H](CO)[C@@H](O)[C@H](O)[C@H]2O[C@H]2C[C@](C)(N)[C@H](O)[C@H](C)O2)Oc2ccc(cc2Cl)[C@H]1O [VCM, vancomycin hydrochloride, reference compound]
- number of lung infecting bacteria (therapeutic) [1]: significantly reduced numbers of lung infecting bacteria

B1: ZBIA3H: antibody produced by hybridoma NITE BP-1366; heavy and light chain variable regions SEQ ID NOs: 15 and 16 (antibody, listed as Mus musculus, V domains shown)
VH: EVQLVESGGGLVQPKGSLKLSCAASGFTFNTYAMNWVRQAPGKGLEWVARIRSKSNNYATYYADSVKDRFTISRDDSQSMLYLQMNSLKTEDTAMYYCVRRGGNAIYYAMDYWGQGTSVTVSS
VL: QIVLTQSPAIMSASPGEKVTMTCSANSSVSYMHWYQQKSGTSPKAWIYDTSKLASGVPARFSGSGSGTSYSLTISSMEAEDAATYYCQQWSSNPPTFGSGTKLEIK
- number of lung infecting bacteria (therapeutic) [1]: significantly reduced numbers of lung infecting bacteria
- binding affinity to Staphylococcus aureus (ELISA reactivity, grouped by added concentration and reactivity) [2]: moderate level of binding affinity
- life-prolonging effect (number of surviving mice) [3]: significant life-prolonging effects
- number of lung infecting bacteria (preventive) [4]: significantly reduced numbers of lung infecting bacteria
- life-prolonging effect (number of surviving mice) [5]: significant life-prolonging effects

B2: ZBIA9H: anti-Staphylococcus monoclonal antibody; CDRs SEQ ID NOs: 17-22, variable regions SEQ ID NOs: 23 and 24 (antibody, listed as Mus musculus, V domains shown)
VH: EVQLVESGGGLVQPKGSLKLSCAASGFTFNTYAMNWVRQAPGKGLEWVARIRSKSNNYATYYADSVKDRFTIFRDDSQSILYLQLNNLKTEDTAMYYCVRRGGNPYYAMDYWGQGTSVTVSS
VL: QIVLSQSPAILSASPGEKVTMTCRASSSVSYMHWYQQKPGSSPKPWIYATSNLASGVPGRFSGSGSGTSYSLTISRVEAEDAATYYCQQWSSNPPTFGGGTKLEIK
- binding affinity to Staphylococcus aureus (ELISA reactivity, grouped by added concentration and reactivity) [2]: moderate level of binding affinity

B3: ZBIA5H: antibody produced by hybridoma NITE BP-1367; heavy and light chain variable regions SEQ ID NOs: 7 and 8 (antibody, listed as Mus musculus, V domains shown)
VH: QIQLVQSGPELKKPGETVKISCKASGYTFTDYSMHWVKQAPGKGLKWMGWINTETGEPTYADDFKGRFAFSLETSASTAYLQINNLKNEDTATYFCARPYYAMDYWGQGTSVTVSS
VL: DIQMTQSPSSLSASLGGKVTITCKASQDINKYIAWYQHKPGKGPRLLIHYTSTLQPGIPSRFSGSGSGRDYSFSISNLEPEDIATYYCLQYDNLLPWTFGGGTKLEIK
- number of lung infecting bacteria (therapeutic) [1]: significantly reduced numbers of lung infecting bacteria
- binding affinity to Staphylococcus aureus (ELISA reactivity, grouped by added concentration and reactivity) [2]: moderate level of binding affinity
- life-prolonging effect (number of surviving mice) [3]: significant life-prolonging effects
- number of lung infecting bacteria (preventive) [4]: significantly reduced numbers of lung infecting bacteria
- life-prolonging effect (number of surviving mice) [5]: significant life-prolonging effects
